Measurements taken from publication PMC10713552 (Communications Biology, 2023).

Key:
[1] = biological target: Omicron BA.1 spike protein ectodomain (BLI) (SARS-CoV-2 Omicron BA.1, strain); test: BLI
[2] = biological target: D614G-Hexapro (WT) spike ectodomain (SARS-CoV-2 Wuhan-Hu-1 D614G, D614G); test: BLI

Binder | Kd [1] | koff [1] | kon [1] | Kd [2] | koff [2] | kon [2]
0324-LN3_T65H (antibody, V domains shown, source: Expi293F, transfected) VH: QVQLQQWGPGLVNPSETLSLTCSVSGGSFATENYYWSWIRQHPGEGLEWIGNIYFSGNHYYNPSLNNRFTISFDTSKNHLSLKLPSVTAADTAVYYCARGTIYFDLSGYRRVDPFHIWGQGTMVIVSS VL: not shown | 1.16 nM | 0.000413 s⁻¹ | 356000 M⁻¹ s⁻¹ | 0.276 nM | 0.000291 s⁻¹ | 1.06e+06 M⁻¹ s⁻¹
0332-LN3_T65R (antibody, V domains shown, source: Expi293F, transfected) VH: QVQLQQWGPGLVNPSETLSLTCSVSGGSFATENYYWSWIRQHPGEGLEWIGNIYFSGNRYYNPSLNNRFTISFDTSKNHLSLKLPSVTAADTAVYYCARGTIYFDLSGYRRVDPFHIWGQGTMVIVSS VL: not shown | 38.9 nM | 0.0018 s⁻¹ | 46200 M⁻¹ s⁻¹ |  |  | 
0308-IN3_T65L (antibody, V domains shown, source: Expi293F, transfected) VH: QVQLQQWGPGLVNPSETLSLTCSVSGGSFATENYYWSWIRQHPGEGLEWIGNIYFSGNLYYNPSLNNRFTISFDTSKNHLSLKLPSVTAADTAVYYCARGTIYFDISGYRRVDPFHIWGQGTMVIVSS VL: not shown | 3.92 nM | 0.000364 s⁻¹ | 93000 M⁻¹ s⁻¹ | 515 nM | 0.000134 s⁻¹ | 261 M⁻¹ s⁻¹
0311-IN3_T65P (antibody, V domains shown, source: Expi293F, transfected) VH: QVQLQQWGPGLVNPSETLSLTCSVSGGSFATENYYWSWIRQHPGEGLEWIGNIYFSGNPYYNPSLNNRFTISFDTSKNHLSLKLPSVTAADTAVYYCARGTIYFDISGYRRVDPFHIWGQGTMVIVSS VL: not shown | 10.9 nM | 0.000965 s⁻¹ | 88200 M⁻¹ s⁻¹ | 200 nM | 0.000578 s⁻¹ | 2890 M⁻¹ s⁻¹
0365-N3_T65L (antibody, V domains shown, source: Expi293F, transfected) VH: QVQLQQWGPGLVNPSETLSLTCSVSGGSFATENYYWSWIRQHPGEGLEWIGNIYFSGNLYYNPSLNNRFTISFDTSKNHLSLKLPSVTAADTAVYYCARGTIYFDRSGYRRVDPFHIWGQGTMVIVSS VL: not shown |  |  |  | 387 nM | 0.000123 s⁻¹ | 318 M⁻¹ s⁻¹
0302-IN3_T65E (antibody, V domains shown, source: Expi293F, transfected) VH: QVQLQQWGPGLVNPSETLSLTCSVSGGSFATENYYWSWIRQHPGEGLEWIGNIYFSGNEYYNPSLNNRFTISFDTSKNHLSLKLPSVTAADTAVYYCARGTIYFDISGYRRVDPFHIWGQGTMVIVSS VL: not shown | 8.27 nM | 0.000634 s⁻¹ | 76700 M⁻¹ s⁻¹ | 776 nM | 0.000163 s⁻¹ | 210 M⁻¹ s⁻¹
0333-LN3_T65S (antibody, V domains shown, source: Expi293F, transfected) VH: QVQLQQWGPGLVNPSETLSLTCSVSGGSFATENYYWSWIRQHPGEGLEWIGNIYFSGNSYYNPSLNNRFTISFDTSKNHLSLKLPSVTAADTAVYYCARGTIYFDLSGYRRVDPFHIWGQGTMVIVSS VL: not shown | 11.7 nM | 0.000566 s⁻¹ | 48500 M⁻¹ s⁻¹ | 146 nM | 4.17e-05 s⁻¹ | 285 M⁻¹ s⁻¹
0300-IN3_T65A (antibody, V domains shown, source: Expi293F, transfected) VH: QVQLQQWGPGLVNPSETLSLTCSVSGGSFATENYYWSWIRQHPGEGLEWIGNIYFSGNAYYNPSLNNRFTISFDTSKNHLSLKLPSVTAADTAVYYCARGTIYFDISGYRRVDPFHIWGQGTMVIVSS VL: not shown | 3.61 nM | 0.000404 s⁻¹ | 112000 M⁻¹ s⁻¹ |  |  | 210 M⁻¹ s⁻¹
0337-LN3_T65Y (antibody, V domains shown, source: Expi293F, transfected) VH: QVQLQQWGPGLVNPSETLSLTCSVSGGSFATENYYWSWIRQHPGEGLEWIGNIYFSGNYYYNPSLNNRFTISFDTSKNHLSLKLPSVTAADTAVYYCARGTIYFDLSGYRRVDPFHIWGQGTMVIVSS VL: not shown | 11.7 nM | 0.000305 s⁻¹ | 26100 M⁻¹ s⁻¹ | 87.3 nM | 0.000393 s⁻¹ | 4500 M⁻¹ s⁻¹
0306-IN3_T65I (antibody, V domains shown, source: Expi293F, transfected) VH: QVQLQQWGPGLVNPSETLSLTCSVSGGSFATENYYWSWIRQHPGEGLEWIGNIYFSGNIYYNPSLNNRFTISFDTSKNHLSLKLPSVTAADTAVYYCARGTIYFDISGYRRVDPFHIWGQGTMVIVSS VL: not shown | 4.36 nM | 0.000517 s⁻¹ | 119000 M⁻¹ s⁻¹ | 524 nM | 0.000136 s⁻¹ | 259 M⁻¹ s⁻¹
0301-IN3_T65D (antibody, V domains shown, source: Expi293F, transfected) VH: QVQLQQWGPGLVNPSETLSLTCSVSGGSFATENYYWSWIRQHPGEGLEWIGNIYFSGNDYYNPSLNNRFTISFDTSKNHLSLKLPSVTAADTAVYYCARGTIYFDISGYRRVDPFHIWGQGTMVIVSS VL: not shown | 6.38 nM | 0.000601 s⁻¹ | 94200 M⁻¹ s⁻¹ | 306 nM | 6.75e-05 s⁻¹ | 221 M⁻¹ s⁻¹
0387-YN3_T65P (antibody, V domains shown, source: Expi293F, transfected) VH: QVQLQQWGPGLVNPSETLSLTCSVSGGSFATENYYWSWIRQHPGEGLEWIGNIYFSGNPYYNPSLNNRFTISFDTSKNHLSLKLPSVTAADTAVYYCARGTIYFDYSGYRRVDPFHIWGQGTMVIVSS VL: not shown | 9.21 nM | 9.1e-05 s⁻¹ | 9880 M⁻¹ s⁻¹ |  |  | 
0364-N3_T65K (antibody, V domains shown, source: Expi293F, transfected) VH: QVQLQQWGPGLVNPSETLSLTCSVSGGSFATENYYWSWIRQHPGEGLEWIGNIYFSGNKYYNPSLNNRFTISFDTSKNHLSLKLPSVTAADTAVYYCARGTIYFDRSGYRRVDPFHIWGQGTMVIVSS VL: not shown |  |  |  | 288 nM | 9.92e-05 s⁻¹ | 344 M⁻¹ s⁻¹
0310-IN3_T65N (antibody, V domains shown, source: Expi293F, transfected) VH: QVQLQQWGPGLVNPSETLSLTCSVSGGSFATENYYWSWIRQHPGEGLEWIGNIYFSGNNYYNPSLNNRFTISFDTSKNHLSLKLPSVTAADTAVYYCARGTIYFDISGYRRVDPFHIWGQGTMVIVSS VL: not shown | 15.2 nM | 0.000949 s⁻¹ | 62500 M⁻¹ s⁻¹ |  |  | 
0389-YN3_T65R (antibody, V domains shown, source: Expi293F, transfected) VH: QVQLQQWGPGLVNPSETLSLTCSVSGGSFATENYYWSWIRQHPGEGLEWIGNIYFSGNRYYNPSLNNRFTISFDTSKNHLSLKLPSVTAADTAVYYCARGTIYFDYSGYRRVDPFHIWGQGTMVIVSS VL: not shown |  |  |  | 839 nM | 0.00107 s⁻¹ | 1280 M⁻¹ s⁻¹
0314-IN3_T65S (antibody, V domains shown, source: Expi293F, transfected) VH: QVQLQQWGPGLVNPSETLSLTCSVSGGSFATENYYWSWIRQHPGEGLEWIGNIYFSGNSYYNPSLNNRFTISFDTSKNHLSLKLPSVTAADTAVYYCARGTIYFDISGYRRVDPFHIWGQGTMVIVSS VL: not shown | 68.7 nM | 0.00114 s⁻¹ | 16600 M⁻¹ s⁻¹ |  |  | 
0316-IN3_T65V (antibody, V domains shown, source: Expi293F, transfected) VH: QVQLQQWGPGLVNPSETLSLTCSVSGGSFATENYYWSWIRQHPGEGLEWIGNIYFSGNVYYNPSLNNRFTISFDTSKNHLSLKLPSVTAADTAVYYCARGTIYFDISGYRRVDPFHIWGQGTMVIVSS VL: not shown | 10.6 nM | 0.000555 s⁻¹ | 52400 M⁻¹ s⁻¹ | 89.3 nM | 2.62e-05 s⁻¹ | 294 M⁻¹ s⁻¹
0390-YN3_T65S (antibody, V domains shown, source: Expi293F, transfected) VH: QVQLQQWGPGLVNPSETLSLTCSVSGGSFATENYYWSWIRQHPGEGLEWIGNIYFSGNSYYNPSLNNRFTISFDTSKNHLSLKLPSVTAADTAVYYCARGTIYFDYSGYRRVDPFHIWGQGTMVIVSS VL: not shown |  |  |  | 830 nM | 0.00105 s⁻¹ | 1270 M⁻¹ s⁻¹
0303-IN3_T65F (antibody, V domains shown, source: Expi293F, transfected) VH: QVQLQQWGPGLVNPSETLSLTCSVSGGSFATENYYWSWIRQHPGEGLEWIGNIYFSGNFYYNPSLNNRFTISFDTSKNHLSLKLPSVTAADTAVYYCARGTIYFDISGYRRVDPFHIWGQGTMVIVSS VL: not shown | 6.04 nM | 0.000575 s⁻¹ | 95200 M⁻¹ s⁻¹ | 0.129 nM | 0.000115 s⁻¹ | 887000 M⁻¹ s⁻¹
0313-IN3_T65R (antibody, V domains shown, source: Expi293F, transfected) VH: QVQLQQWGPGLVNPSETLSLTCSVSGGSFATENYYWSWIRQHPGEGLEWIGNIYFSGNRYYNPSLNNRFTISFDTSKNHLSLKLPSVTAADTAVYYCARGTIYFDISGYRRVDPFHIWGQGTMVIVSS VL: not shown | 7.36 nM | 0.000758 s⁻¹ | 103000 M⁻¹ s⁻¹ | 0.873 nM | 0.000516 s⁻¹ | 591000 M⁻¹ s⁻¹
0305-IN3_T65H (antibody, V domains shown, source: Expi293F, transfected) VH: QVQLQQWGPGLVNPSETLSLTCSVSGGSFATENYYWSWIRQHPGEGLEWIGNIYFSGNHYYNPSLNNRFTISFDTSKNHLSLKLPSVTAADTAVYYCARGTIYFDISGYRRVDPFHIWGQGTMVIVSS VL: not shown | 2.89 nM | 0.000368 s⁻¹ | 128000 M⁻¹ s⁻¹ | 387 nM | 9.99e-05 s⁻¹ | 258 M⁻¹ s⁻¹
0385-YN3_T65M (antibody, V domains shown, source: Expi293F, transfected) VH: QVQLQQWGPGLVNPSETLSLTCSVSGGSFATENYYWSWIRQHPGEGLEWIGNIYFSGNMYYNPSLNNRFTISFDTSKNHLSLKLPSVTAADTAVYYCARGTIYFDYSGYRRVDPFHIWGQGTMVIVSS VL: not shown |  |  |  | 9.93 nM | 0.00157 s⁻¹ | 158000 M⁻¹ s⁻¹
0369-N3_T65Q (antibody, V domains shown, source: Expi293F, transfected) VH: QVQLQQWGPGLVNPSETLSLTCSVSGGSFATENYYWSWIRQHPGEGLEWIGNIYFSGNQYYNPSLNNRFTISFDTSKNHLSLKLPSVTAADTAVYYCARGTIYFDRSGYRRVDPFHIWGQGTMVIVSS VL: not shown |  |  |  | 65.4 nM | 0.000113 s⁻¹ | 1730 M⁻¹ s⁻¹
0382-YN3_T65I (antibody, V domains shown, source: Expi293F, transfected) VH: QVQLQQWGPGLVNPSETLSLTCSVSGGSFATENYYWSWIRQHPGEGLEWIGNIYFSGNIYYNPSLNNRFTISFDTSKNHLSLKLPSVTAADTAVYYCARGTIYFDYSGYRRVDPFHIWGQGTMVIVSS VL: not shown |  |  |  | 2690 nM | 0.000811 s⁻¹ | 302 M⁻¹ s⁻¹
0342-MN3_T65G (antibody, V domains shown, source: Expi293F, transfected) VH: QVQLQQWGPGLVNPSETLSLTCSVSGGSFATENYYWSWIRQHPGEGLEWIGNIYFSGNGYYNPSLNNRFTISFDTSKNHLSLKLPSVTAADTAVYYCARGTIYFDMSGYRRVDPFHIWGQGTMVIVSS VL: not shown | 8.08 nM | 0.000428 s⁻¹ | 53000 M⁻¹ s⁻¹ | 69.1 nM | 0.000217 s⁻¹ | 3140 M⁻¹ s⁻¹
